According to the RNAGym collection of RNA variant scans (doi:10.7554/elife.80360):

B1: CPEB3 Ribozyme (parent)
chain: GGGGGCCACAGCAGAAGCGUUCACGUCGCGGCCCCUGUCAGAUUCUGGUGAAUCUGCGAAUUCUGCUGU

Variants of: B1
Test: self-cleavage, relative activity (ratio to wild type); higher = more cleavage; co-transcriptional

Row | Variant | self-cleavage
1 | AGGGGCCACAGCAUAAGCGUUCACGUCGCGGCCCCUGUCAGAUUCUGGUGAAUCUGCGAAUUCUGCUGU [G1A G14U] | 0.0964
2 | AGGGGCCACAGCAGAAGCGUUCACUUCGCGGCCCCUGUCAGAUUCUGGUGAAUCUGCGAAUUCUGCUGU [G1A G25U] | 0.076
3 | AGGGGCCACAGCAGAAGCGUUCACAUCGCGGCCCCUGUCAGAUUCUGGUGAAUCUGCGAAUUCUGCUGU [G1A G25A] | 0.0488
4 | CGGGGCCACAGCAGAAGCUUUCACGUCGCGGCCCCUGUCAGAUUCUGGUGAAUCUGCGAAUUCUGCUGU [G1C G19U] | 0.166
5 | CGGGGCCACAGCAGAAGCCUUCACGUCGCGGCCCCUGUCAGAUUCUGGUGAAUCUGCGAAUUCUGCUGU [G1C G19C] | 0.126
6 | AGGGGCCACAGCAGAAGCGUUCACGUCGCGGCCCCUAUCAGAUUCUGGUGAAUCUGCGAAUUCUGCUGU [G1A G37A] | 0.0641
7 | AGGGGCCACAGCAGAAGCGUUCACGUCGCGGCCCCUGUCAGAUUCUGGUGAAUCUGCGAAUUCCGCUGU [G1A U64C] | 0.0762
8 | CGGGGCCACAGCAGAAGCGUUCACGUCGCGGCCCCUGUCAGAUUCUGGUGAAUAUGCGAAUUCUGCUGU [G1C C54A] | 0.272
9 | CGGGGCCACAGCAGAAGCGUUCACGUCGCGGCCCCUGUCAGAUUCUGGUGAAUUUGCGAAUUCUGCUGU [G1C C54U] | 0.237
10 | CGGGGCCACAGCAGAAGCGUUCACGUCGCGGCCCCUGUCAGAUUCUGGUGGAUCUGCGAAUUCUGCUGU [G1C A51G] | 0.18
11 | AGGGGCCACACCAGAAGCGUUCACGUCGCGGCCCCUGUCAGAUUCUGGUGAAUCUGCGAAUUCUGCUGU [G1A G11C] | 0.0395
12 | CGGGGCCACAGCAGAAGCGUUCACGUCGCGGCCCCUGUCAGAUUCUGGUGAAUCUGCGAAUUGUGCUGU [G1C C63G] | 0.201
13 | CUGGGCCACAGCAGAAGCGUUCACGUCGCGGCCCCUGUCAGAUUCUGGUGAAUCUGCGAAUUCUGCUGU [G1C G2U] | 0.142
14 | CCGGGCCACAGCAGAAGCGUUCACGUCGCGGCCCCUGUCAGAUUCUGGUGAAUCUGCGAAUUCUGCUGU [G1C G2C] | 0.67
15 | CGGGGCCACAGCAGAAGCGUUCACGUCGCGGCCCCUGUAAGAUUCUGGUGAAUCUGCGAAUUCUGCUGU [G1C C39A] | 0.174
16 | CGCGGCCACAGCAGAAGCGUUCACGUCGCGGCCCCUGUCAGAUUCUGGUGAAUCUGCGAAUUCUGCUGU [G1C G3C] | 0.0906
17 | AGGGGCCACAGCAGAAGCGUUCACGUCGCGGCCCCUGUCAGACUCUGGUGAAUCUGCGAAUUCUGCUGU [G1A U43C] | 0.0436
18 | AGGGGCCACAGCAGAAGCGUUCACGUCGCGGCCCCUGUCAGAAUCUGGUGAAUCUGCGAAUUCUGCUGU [G1A U43A] | 0.0552
19 | AGGGGCCACAGCAGAAGCGUUCACGUCGCGGCCCCUGUCAGAGUCUGGUGAAUCUGCGAAUUCUGCUGU [G1A U43G] | 0.0723
20 | AGGGGCCACAGCAGAAGCGUUCACGUCGCGGCCCCUGUCAAAUUCUGGUGAAUCUGCGAAUUCUGCUGU [G1A G41A] | 0.0513

Row | Variant | self-cleavage
21 | CGGGGCCACAGCAGAAGCGUUCACGUCGCGGCCCCUGUCAGAUUCUGGUGAAUCUGCGAAUUCUGGUGU [G1C C66G] | 0.248
22 | CGGGGCCACAGCAGAAGCGUUCACGUCGCGGCCCCUAUCAGAUUCUGGUGAAUCUGCGAAUUCUGCUGU [G1C G37A] | 0.157
23 | AGGGGCCACAGCAGAAGCGUUCACGUCGCGGCCCCUGUCAGAUUCUGGUGAAUCGGCGAAUUCUGCUGU [G1A U55G] | 0.0876
24 | CGGGGCCGCAGCAGAAGCGUUCACGUCGCGGCCCCUGUCAGAUUCUGGUGAAUCUGCGAAUUCUGCUGU [G1C A8G] | 0.205
25 | CGGGGCCACAGCAGAAGCGUUCACGUCACGGCCCCUGUCAGAUUCUGGUGAAUCUGCGAAUUCUGCUGU [G1C G28A] | 0.102
26 | AGGGGCCACAGCAGAAGCGUUCACGUCGCGGCCCCUGUCAGAUUCUGGUGAAUCUGCGAAUUCUGCGGU [G1A U67G] | 0.0812
27 | AGGGGCCACAGCAGAAGCGUUCACGUCGCGGCCCCUGUCAGAUUCUGGUGAAUCUGCGAAUUCUGCAGU [G1A U67A] | 0.121
28 | CGGGGCCACAGCAGUAGCGUUCACGUCGCGGCCCCUGUCAGAUUCUGGUGAAUCUGCGAAUUCUGCUGU [G1C A15U] | 0.229
29 | AGGGGCCACAGCAGAAGCGUUCACGUCGCGGCCCCUGUCAGAUUCUGGUGAAUCUGCUAAUUCUGCUGU [G1A G58U] | 0.0885
30 | CGGGGCCACAGCAGACGCGUUCACGUCGCGGCCCCUGUCAGAUUCUGGUGAAUCUGCGAAUUCUGCUGU [G1C A16C] | 0.161
31 | AGGGGCCACAGCAGAAGCGUUCACGUCGCGUCCCCUGUCAGAUUCUGGUGAAUCUGCGAAUUCUGCUGU [G1A G31U] | 0.0837
32 | AGGGGCCACAGCAGAAGCGUUCACGUCGCUGCCCCUGUCAGAUUCUGGUGAAUCUGCGAAUUCUGCUGU [G1A G30U] | 0.0869
33 | CGGGGCCACAGCAGAAGCGUUUACGUCGCGGCCCCUGUCAGAUUCUGGUGAAUCUGCGAAUUCUGCUGU [G1C C22U] | 0.0706
34 | AGGGGCCACAGCAGAAGCUUUCACGUCGCGGCCCCUGUCAGAUUCUGGUGAAUCUGCGAAUUCUGCUGU [G1A G19U] | 0.0319
35 | AGGGGCCACAGCAGAAGCAUUCACGUCGCGGCCCCUGUCAGAUUCUGGUGAAUCUGCGAAUUCUGCUGU [G1A G19A] | 0.0657
36 | AGGGGCCACAGCAGAAGCCUUCACGUCGCGGCCCCUGUCAGAUUCUGGUGAAUCUGCGAAUUCUGCUGU [G1A G19C] | 0.0333
37 | AGGGGCCACAGCAGAAGCGUUCACGUCGCGGCCCCUGUCAGAUUCUGCUGAAUCUGCGAAUUCUGCUGU [G1A G48C] | 0.142
38 | AGGUGCCACAGCAGAAGCGUUCACGUCGCGGCCCCUGUCAGAUUCUGGUGAAUCUGCGAAUUCUGCUGU [G1A G4U] | 0.0804
39 | CGGGGCUACAGCAGAAGCGUUCACGUCGCGGCCCCUGUCAGAUUCUGGUGAAUCUGCGAAUUCUGCUGU [G1C C7U] | 0.172
